# B1: P. savastanoi FliP (natural protein)
# chain: ADPLSIPAITLSNGADGQQEYSVSLQILLIMTALSFIPAFVMLMTSFTRIIIVFSILRQALGLQQTPSNQILTGMALFLTMFIMAPVFDRVNQDALQPYLAEKLSAQDAVAKAQVPIKDFMLAQTRTSDLELFMRLSKRTDIPTPDAAPLTILVPAFVISELKTAFQIGFMIFIPFLIIDLVVASVLMAMGMMMLSPLIISLPFKIMLFVLVDGWALIVGTLAGSFGGV
# B2: P. savastanoi FliQ (natural protein)
# chain: MTPEVAVDLFREALWLTTVLVAILVVPSLLCGLLVAMFQAATQINEQTLSFLPRLLVMLVTLIVIGPWLLKIFMEYMLSLYTSIPTLIG
# notes: also called FliQ5
# Target: the molecule itself
# Assay: cryo-EM structure
row,Protein,stoichiometry N
1,B1,5
2,B2,5

# Source: article doi:10.1101/686782 (bioRxiv, 2019)
